Usually EC50 stands for the concentration needed to bring the measured effect to its halfway point. One may read the Kd as a measure of binding affinity in units of concentration.

Assay [1] deals with T1, recombinant human γ8δ2 TCR protein (human).
T1 chain 1: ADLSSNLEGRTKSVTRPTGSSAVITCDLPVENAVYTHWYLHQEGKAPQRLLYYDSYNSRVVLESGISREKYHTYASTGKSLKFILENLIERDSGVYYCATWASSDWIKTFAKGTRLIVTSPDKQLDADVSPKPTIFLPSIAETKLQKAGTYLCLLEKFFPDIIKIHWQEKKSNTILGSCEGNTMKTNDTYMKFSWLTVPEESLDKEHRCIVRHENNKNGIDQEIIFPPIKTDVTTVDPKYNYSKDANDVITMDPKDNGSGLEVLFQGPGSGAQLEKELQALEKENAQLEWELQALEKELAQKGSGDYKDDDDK
T1 chain 2: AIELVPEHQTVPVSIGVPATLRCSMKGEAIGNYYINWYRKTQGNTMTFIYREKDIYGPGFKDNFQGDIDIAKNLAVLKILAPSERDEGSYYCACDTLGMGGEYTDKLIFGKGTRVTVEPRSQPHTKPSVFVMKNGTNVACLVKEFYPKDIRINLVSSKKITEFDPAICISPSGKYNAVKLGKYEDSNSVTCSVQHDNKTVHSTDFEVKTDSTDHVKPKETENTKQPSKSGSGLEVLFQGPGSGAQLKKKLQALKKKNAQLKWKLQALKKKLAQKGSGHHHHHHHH
Kind of assay: ELISA, plate coated with 1 µg/mL recombinant TCR protein, antibody at 30 nM.

For assay [2], the target named is T1, recombinant human γ8δ2 TCR protein. In words: ELISA, plate coated with 1 µg/mL recombinant TCR protein.
The target in assay [3] is T2, human GPC3 naturally expressed on tumor cells (human, UniProt P51654 25-580).
T2 construct: whole, on cells; also called GPC3 on HepG2 cells; GPC3 on Huh-7 cells
T2 sequence (P51654 25-580, form in doubt): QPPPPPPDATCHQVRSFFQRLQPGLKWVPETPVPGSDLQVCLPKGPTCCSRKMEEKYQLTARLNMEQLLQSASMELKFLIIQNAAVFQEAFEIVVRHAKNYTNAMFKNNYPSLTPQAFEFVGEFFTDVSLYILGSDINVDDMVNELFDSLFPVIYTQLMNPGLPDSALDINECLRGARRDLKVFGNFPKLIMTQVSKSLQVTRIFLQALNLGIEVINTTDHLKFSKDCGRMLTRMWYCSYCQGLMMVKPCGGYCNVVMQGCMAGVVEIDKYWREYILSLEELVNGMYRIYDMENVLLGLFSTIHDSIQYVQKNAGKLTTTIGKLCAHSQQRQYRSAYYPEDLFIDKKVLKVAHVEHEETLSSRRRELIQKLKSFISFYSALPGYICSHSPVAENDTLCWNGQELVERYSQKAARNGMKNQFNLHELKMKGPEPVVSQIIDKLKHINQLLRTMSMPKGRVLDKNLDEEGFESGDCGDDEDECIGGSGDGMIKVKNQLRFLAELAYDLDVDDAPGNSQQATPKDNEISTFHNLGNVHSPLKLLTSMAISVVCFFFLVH
In words: FACS on HepG2 cells (natural human GPC3), anti-human Fc secondary.

Assay [4] deals with T2, human GPC3 naturally expressed on tumor …. Kind of assay: cell-based or functional assay.
The target in assay [5] is T3, cynomolgus monkey GPC3 (Acrobiosystems, Cat#GP3-C5225) (cynomolgus monkey, UniProt A0A2K5VK50 24-558).
T3 construct: Bought protein
In words: SPR (Biacore 8K), antibody captured on Protein A chip, antigen as analyte. A general note: SPR reads the build-up and loss of mass on a sensor chip optically.

Assay [6] deals with T4, human GPC3 (Sino Biological, Cat#10088-H08H) (human, UniProt P51654 25-559).
T4 construct: Bought protein; also called human GPC3 protein
T4 sequence (P51654 25-559 limits assumed): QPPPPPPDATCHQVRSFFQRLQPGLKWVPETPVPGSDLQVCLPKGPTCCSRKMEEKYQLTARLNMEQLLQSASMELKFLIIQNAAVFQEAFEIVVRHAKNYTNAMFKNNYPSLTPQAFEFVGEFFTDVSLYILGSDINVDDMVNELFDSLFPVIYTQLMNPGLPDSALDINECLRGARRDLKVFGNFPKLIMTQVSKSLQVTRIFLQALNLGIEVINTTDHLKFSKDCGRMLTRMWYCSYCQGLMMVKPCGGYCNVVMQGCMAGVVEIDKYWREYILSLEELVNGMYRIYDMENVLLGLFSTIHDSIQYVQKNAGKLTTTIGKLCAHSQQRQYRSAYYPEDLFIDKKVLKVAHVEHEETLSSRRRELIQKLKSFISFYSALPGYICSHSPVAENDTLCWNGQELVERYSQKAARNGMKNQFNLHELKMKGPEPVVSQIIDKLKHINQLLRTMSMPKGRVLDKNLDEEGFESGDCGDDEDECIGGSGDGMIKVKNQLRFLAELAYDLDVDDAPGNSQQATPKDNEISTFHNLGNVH
The assay is described as above.

The target of assay [7] is T5, recombinant monkey (Macaca mulatta) γ9δ2 TCR protein (monkey (Macaca mulatta); called …).
T5 construct: also called Monkey γ9δ2 TCR; Cynomolgus monkey γ9δ2
T5 V domain 1: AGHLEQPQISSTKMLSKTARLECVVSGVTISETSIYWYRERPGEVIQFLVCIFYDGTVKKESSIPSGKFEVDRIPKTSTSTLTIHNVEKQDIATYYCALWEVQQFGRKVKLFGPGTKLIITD
T5 V domain 2: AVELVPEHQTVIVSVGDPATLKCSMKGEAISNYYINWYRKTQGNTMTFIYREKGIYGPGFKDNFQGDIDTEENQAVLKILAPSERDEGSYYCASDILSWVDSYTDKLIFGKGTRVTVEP
The assay is described as above.

The target in assay [8] is T2, human GPC3 naturally expressed on tumor …. In words: cell-based or functional assay. The source holds these as a separate data set.

B1: SDP01315 (antibody, V domains shown)
VH: EVKLVESGGGLVKPGGSLKLSCAASGFTFSSYAMSWVRQTPEKRLEWVASISSGGSTYYPDSVKGRFTISRDNARNILYLQMSSLRSEDTAMYYCARDGYPPFDYWGQGTTLTVSS
VL: DIVMTQSQKFMSTSVGDRVSVTCKASQNVGTNVAWYQQKPGQSPKALIYSASYRYSGVPDRFTGSGSGTDFTLTISNVQSEDLAEYFCQQYNSFPLTFGSGTKLEIK
notes: Tested as a chimeric antibody (Protein A purified, detected with anti-human Fc); also called clone No. bph-003; murine-derived anti-γδTCR antibody
In the case of B1, the “absorbance at 450 nm” value in assay [1] was 0.192 absorbance at 450 nm. Also, in assay [2], the binding result is listed as “no binding (tested: 30 nM)”.

B2: SDP01346 (VHH, not shown: small tags and cut ends)
VHH: QVQLVESGGGLVQAGGSLRLSCTVSGSTFSDFAMGWLRQAPGKEREFVAAISWTGGRTYYADSVKGRFAISRDNGENTVYLQMNSLKSEDTAIYYCAASRDCSGPGCRVHEYDYWGQGTQVTVSS
notes: also called clone No. ac-025; anti-γδTCR single-domain antibody
Consider B2, for which, in assay [1], the “absorbance at 450 nm” value came out at 0.108 absorbance at 450 nm.

B3: SDP01696 (bispecific antibody, human IgG1, kappa)
heavy 1: not shown
light 1: DIQMTQSPSSVSASVGDRVTITCKASQNVGTNVAWYQQKPGKAPKALIYSASYRYSGVPSRFSGSGSGTDFTLTISSLQPEDFATYYCQQYNSFPLTFGQGTKLEIKGGGGSGIPPKIECLPIDISIDEGKVLTVASAFTGEPTPEVTWSTGGRKIHSQEQGRFHIENTDDSTTLTIKDVQKQDGGLYTLTLRNEFGSDSATVNIHIRSI
heavy 2: QVQLVQSGAEVKKPGASVKVSCKASGYTFTDYEMHWVRQAPGQGLEWMGALDPKTGDTAYSQKFKGRVTLTADKSTSTAYMELSSLTSEDTAVYYCTRFYSYTYWGQGTLVTVSSASTKGPSVFPLAPSSKSTSGGTAALGCLVKDYFPEPVTVSWNSGALTSGVHTFPAVLQSSGLYSLSSVVTVPSSSLGTQTYICNVNHKPSNTKVDKKVEPKSCDKTHTCPPCPAPEFEGGPSVFLFPPKPKDTLMISRTPEVTCVVVDVSHEDPEVKFNWYVDGVEVHNAKTKPREEQYNSTYRVVSVLTVLHQDWLNGKEYKCKVSNKALPAPIEKTISKAKGQPREPQVCTLPPSREEMTKNQVSLSCAVKGFYPSDIAVEWESNGQPENNYKTTPPVLDSDGSFFLVSKLTVDKSRWQQGNVFSCSVMHEALHNHYTQKSLSLSPGK
light 2: DVVMTQSPLSLPVTPGEPASISCRSSQSLVHSNRNTYLHWYLQKPGQSPQLLIYKVSNRFSGVPDRFSGSGSGTDFTLKISRVEAEDVGVYYCSQNTHVPPTFGQGTKLEIKRTVAAPSVFIFPPSDEQLKSGTASVVCLLNNFYPREAKVQWKVDNALQSGNSQESVTEQDSKDSTYSLSSTLTLSKADYEKHKVYACEVTHQGLSSPVTKSFNRGEC
notes: also called anti-GPC3/γδTCR bispecific antibody (1+1, with SDP01315H2L2)
In assay [3], B3 came in with an EC50 of 5.17 nM. In addition, in assay [4], the “γδT killing of HepG2, EC50 (LDH assay)” value was 0.06 nM; the “γδT killing of HepG2, Emax (LDH assay)” value amounted to 70.1%; the “γδT killing of Huh-7, EC50 (LDH assay)” value is 0.21 nM; the “γδT killing of Huh-7, Emax (LDH assay)” value was 50.9%. In assay [4], the “γδT killing of MKN-45, EC50 (LDH assay)” value was 0.024 nM and the “γδT killing of MKN-45, Emax (LDH assay)” value is 11%. In assay [5], this molecule showed a Kd of 1.47 nM. For the same molecule, in assay [6], the Kd worked out at 1.74 nM. Besides, the Kd in assay [7] is 42.4 nM.

B4: SDP01716 (bispecific antibody, human IgG1, kappa)
heavy 1: not shown
heavy 2: QVQLVQSGAEVKKPGASVKVSCKASGYTFTDYEMHWVRQAPGQGLEWMGALDPKTGDTAYSQKFKGRVTLTADKSTSTAYMELSSLTSEDTAVYYCTRFYSYTYWGQGTLVTVSSASTKGPSVFPLAPSSKSTSGGTAALGCLVKDYFPEPVTVSWNSGALTSGVHTFPAVLQSSGLYSLSSVVTVPSSSLGTQTYICNVNHKPSNTKVDKKVEPKSCDKTHTCPPCPAPEFEGGPSVFLFPPKPKDTLMISRTPEVTCVVVDVSHEDPEVKFNWYVDGVEVHNAKTKPREEQYNSTYRVVSVLTVLHQDWLNGKEYKCKVSNKALPAPIEKTISKAKGQPREPQVCTLPPSREEMTKNQVSLSCAVKGFYPSDIAVEWESNGQPENNYKTTPPVLDSDGSFFLVSKLTVD
light: DVVMTQSPLSLPVTPGEPASISCRSSQSLVHSNRNTYLHWYLQKPGQSPQLLIYKVSNRFSGVPDRFSGSGSGTDFTLKISRVEAEDVGVYYCSQNTHVPPTFGQGTKLEIKRTVAAPSVFIFPPSDEQLKSGTASVVCLLNNFYPREAKVQWKVDNALQSGNSQESVTEQDSKDSTYSLSSTLTLSKADYEKHKVYACEVTHQGLSSPVTKSFNRGEC
notes: Knob-into-hole IgG1 Fc with L234F/L235E; also called anti-GPC3/γδTCR bispecific antibody (1+1, with SDP01346H4)
With B4, in assay [8], the “Killing activity against HepG2, EC50, γδ T cells of donor #SC12004 (LDH assay)” value amounted to 0.038 nM; the “Killing activity against HepG2, EC50, γδ T cells of donor #SC12392 (LDH assay)” value stood at 0.033 nM; the “Killing activity against HepG2, EC50, γδ T cells of donor #XC11053 (LDH assay)” value is 0.017 nM; the “Killing activity against HepG2, EC50, γδ T cells of donor #XC11061 (LDH assay)” value turned out to be 0.054 nM. The molecule further came in with an EC50 in assay [3] of 4.85 nM. For the same molecule, in assay [4], the “γδT killing of HepG2, EC50 (LDH assay)” value amounted to 0.01 nM; the “γδT killing of HepG2, Emax (LDH assay)” value was 70.3%; the “γδT killing of Huh-7, EC50 (LDH assay)” value is 0.06 nM; the “γδT killing of Huh-7, Emax (LDH assay)” value was 93.8%. Also, in assay [4], the “γδT killing of MKN-45, EC50 (LDH assay)” value is 0.004 nM and the “γδT killing of MKN-45, Emax (LDH assay)” value is 10.3%. The molecule also came in with a Kd in assay [5] of 1.47 nM. Also, binding in assay [6] was characterised by a dissociation constant (Kd) of 1.65 nM. Also, in assay [7], the Kd came out at 68.8 nM.

B5: SDP01704 (bispecific antibody, human IgG1, kappa)
heavy 1: not shown
light 1: DIQMTQSPSSVSASVGDRVTITCKASQNVGTNVAWYQQKPGKAPKALIYSASYRYSGVPSRFSGSGSGTDFTLTISSLQPEDFATYYCQQYNSFPLTFGQGTKLEIKGGGGSGIPPKIECLPIDISIDEGKVLTVASAFTGEPTPEVTWSTGGRKIHSQEQGRFHIENTDDSTTLTIKDVQKQDGGLYTLTLRNEFGSDSATVNIHIRSI
heavy 2: QVQLVQSGAEVKKPGASVKVSCKASGYTFTDYEMHWVRQAPGQGLEWMGALDPKTGDTAYSQKFKGRVTLTADKSTSTAYMELSSLTSEDTAVYYCTRFYSYTYWGQGTLVTVSSASTKGPSVFPLAPSSKSTSGGTAALGCLVKDYFPEPVTVSWNSGALTSGVHTFPAVLQSSGLYSLSSVVTVPSSSLGTQTYICNVNHKPSNTKVDKKVEPKSCDGGGGSGGGGSQVQLVQSGAEVKKPGASVKVSCKASGYTFTDYEMHWVRQAPGQGLEWMGALDPKTGDTAYSQKFKGRVTLTADKSTSTAYMELSSLTSEDTAVYYCTRFYSYTYWGQGTLVTVSSASTKGPSVFPLAPSSKSTSGGTAALGCLVKDYFPEPVTVSWNSGALTSGVHTFPAVLQSSGLYSLSSVVTVPSSSLGTQTYICNVNHKPSNTKVDKKVEPKSCDKTHTCPPCPAPEFEGGPSVFLFPPKPKDTLMISRTPEVTCVVVDVSHEDPEVKFNWYVDGVEVHNAKTKPREEQYNSTYRVVSVLTVLHQDWLNGKEYKCKVSNKALPAPIEKTISKAKGQPREPQVCTLPPSREEMTKNQVSLSCAVKGFYPSDIAVEWESNGQPENNYKTTPPVLDSDGSFFLVSKLTVDKSRWQQGNVFSCSVMHEALHNHYTQKSLSLSPGK
light 2: DVVMTQSPLSLPVTPGEPASISCRSSQSLVHSNRNTYLHWYLQKPGQSPQLLIYKVSNRFSGVPDRFSGSGSGTDFTLKISRVEAEDVGVYYCSQNTHVPPTFGQGTKLEIKRTVAAPSVFIFPPSDEQLKSGTASVVCLLNNFYPREAKVQWKVDNALQSGNSQESVTEQDSKDSTYSLSSTLTLSKADYEKHKVYACEVTHQGLSSPVTKSFNRGEC
notes: Bivalent for GPC3; also called anti-GPC3/γδTCR bispecific antibody (2+1, with SDP01315H2L2)
Molecule B5 returned an EC50 in assay [3] of 2.47 nM. In assay [4], the “γδT killing of HepG2, EC50 (LDH assay)” value was determined as 0.03 nM; the “γδT killing of HepG2, Emax (LDH assay)” value came out at 72%; the “γδT killing of Huh-7, EC50 (LDH assay)” value came to 0.11 nM; the “γδT killing of Huh-7, Emax (LDH assay)” value was 61.7%. Moreover, in assay [4], the “γδT killing of MKN-45, EC50 (LDH assay)” value amounted to 0.016 nM and the “γδT killing of MKN-45, Emax (LDH assay)” value was found to be 6.6%. The molecule also gave a Kd in assay [5] of 1.63 nM. The molecule also gave a Kd in assay [6] of 1.84 nM. For the same molecule, the Kd in assay [7] worked out at 40.6 nM.

The values are drawn from patent EP4810516A1 (Shanghai Shengdi Pharmaceutical Co., Ltd., dated 2026).
